Source: publication PMC8606531, “The Impact of Rare Human Variants on Barrier-To-Auto-Integration Factor 1 (Banf1) Structure and Function”

How the values were obtained:
Experiment in all cases: EMSA; EC50; 10 mM KH2PO4, 100 mM NaCl, 0.01% IGEPAL, 5 nM Cy5 DNA, 30 min at 37 C; pH not stated; 8% gel in 1x TBE at 4 C
Details in all cases: protein: recombinant; tags: N-terminal His6 (pET-28a NdeI-XhoI); chain copies: 2; label: 5' Cy5 on forward strand; blunt
Banf1 H7Y = target: T1, Banf1 H7Y (Homo sapiens, UniProt O75531 1-89, H7Y)
T1 sequence: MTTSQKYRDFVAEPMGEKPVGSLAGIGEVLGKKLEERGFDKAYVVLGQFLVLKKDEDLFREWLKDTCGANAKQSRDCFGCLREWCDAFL

Banf1 N70T = target: T2, Banf1 N70T (Homo sapiens, UniProt O75531 1-89, N70T)
T2 sequence: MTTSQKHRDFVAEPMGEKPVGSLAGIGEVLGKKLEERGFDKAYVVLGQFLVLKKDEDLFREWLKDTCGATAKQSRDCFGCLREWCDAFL

Banf1 R75W = target: T3, Banf1 R75W (Homo sapiens, UniProt O75531 1-89, R75W)
T3 sequence: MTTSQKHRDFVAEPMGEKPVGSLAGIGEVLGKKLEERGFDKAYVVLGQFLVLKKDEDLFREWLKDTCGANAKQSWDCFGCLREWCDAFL

B1: Cy5 40 bp dsDNA (dsDNA)
DNA 1: AGGAGCGCCAGACCCACCAAGAGCCCTCTATCGGTTGGGA
DNA 2: TCCCAACCGATAGAGGGCTCTTGGTGGGTCTGGCGCTCCT
Question: What does the source list for B1?
Answer: apparent K (half saturation) (Banf1 H7Y): 26.1 ± 5.02 nM; apparent K (half saturation) (Banf1 N70T): 34.9 ± 4.38 nM; apparent K (half saturation) (Banf1 R75W): 27.8 ± 3.17 nM
